Assay results reported in the Immune Epitope Database (IEDB).

Tests used:
HLA-A*01:01 [1] = assay: IEDB peptide-MHC binding, purified MHC/direct/fluorescence; filed as Kd, often an IC50 or EC50 that approximates it; ≥ and ≤ were set here for values at or beyond the usual limits of such assays
HLA-A*69:01 [2] = assay: as above
HLA-A*11:01 = assay: as above
HLA-B*18:01 [3] = assay: as above
HLA-B*48:01 = assay: as above; settings: source organism: Marburg virus - Musoke, Kenya, 1980
HLA-A*02:01 = assay: as above
HLA-B*27:05 = assay: as above; settings: source organism: Marburg virus - Musoke, Kenya, 1980
HLA-B*58:01 = assay: as above
HLA-B*40:01 = assay: as above; settings: source organism: Marburg virus - Musoke, Kenya, 1980
HLA-B*15:01 = assay: as above
HLA-B*57:01 = assay: as above
HLA-A*26:03 = assay: as above
HLA-B*15:17 = assay: as above; settings: source organism: Marburg virus - Musoke, Kenya, 1980
HLA-B*07:02 = assay: as above
HLA-A*68:02 = assay: as above
HLA-A*03:01 = assay: as above
HLA-A*31:01 = assay: as above
HLA-B*08:02 = assay: as above; settings: source organism: Orthomarburgvirus marburgense
HLA-B*46:01 [4] = assay: as above; settings: source organism: Marburg virus - Musoke, Kenya, 1980
HLA-A*01:01 [5] = assay: IEDB peptide-MHC binding, purified MHC/competitive/fluorescence; filed as Kd, often an IC50 or EC50 that approximates it; ≥ and ≤ were set here for values at or beyond the usual limits of such assays; settings: source organism: Francisella tularensis subsp. tularensis FSC198
HLA-A*26:02 = assay: as above; settings: source organism: Francisella tularensis subsp. tularensis FSC198
HLA-A*26:01 = assay: as above
HLA-B*39:01 [6] = assay: IEDB peptide-MHC binding, purified MHC/direct/fluorescence; filed as Kd, often an IC50 or EC50 that approximates it; ≥ and ≤ were set here for values at or beyond the usual limits of such assays; settings: source organism: Francisella tularensis subsp. tularensis FSC033
HLA-B*15:09 = assay: as above; settings: source organism: Francisella tularensis subsp. tularensis FSC033
HLA-B*08:01 = assay: as above; settings: source organism: Francisella tularensis subsp. holarctica LVS
HLA-B*45:06 = assay: IEDB peptide-MHC binding, purified MHC/competitive/fluorescence; filed as Kd, often an IC50 or EC50 that approximates it; ≥ and ≤ were set here for values at or beyond the usual limits of such assays; settings: source organism: human gammaherpesvirus 4
HLA-B*83:01 = assay: as above; settings: source organism: human gammaherpesvirus 4
HLA-B*15:42 = assay: as above; settings: source organism: human gammaherpesvirus 4
HLA-C*14:02 = assay: as above; settings: source organism: human gammaherpesvirus 4
HLA-A*68:23 = assay: as above; settings: source organism: human gammaherpesvirus 4
HLA-A*69:01 [7] = assay: as above; settings: source organism: Orthohantavirus khabarovskense
HLA-B*39:01 [8] = assay: as above; settings: source organism: Orthohantavirus khabarovskense
HLA-B*18:01 [9] = assay: as above; settings: source organism: Orthohantavirus khabarovskense
HLA-B*27:03 = assay: as above; settings: source organism: Orthohantavirus khabarovskense
HLA-B*35:01 = assay: as above; settings: source organism: Orthohantavirus khabarovskense
HLA-B*46:01 [10] = assay: as above; settings: source organism: Orthohantavirus khabarovskense
HLA-C*08:02 = assay: IEDB peptide-MHC binding, purified MHC/direct/fluorescence; filed as Kd, often an IC50 or EC50 that approximates it; ≥ and ≤ were set here for values at or beyond the usual limits of such assays; settings: source organism: Orthohantavirus khabarovskense
HLA-A*23:01 = assay: as above; settings: source organism: Choclo virus
HLA-A*02:12 = assay: as above; settings: source organism: Choclo virus
HLA-A*24:03 = assay: as above; settings: source organism: Choclo virus
HLA-C*03:03 = assay: as above; settings: source organism: Orthohantavirus khabarovskense
HLA-A*02:19 = assay: as above; settings: source organism: Choclo virus
HLA-C*12:03 = assay: as above; settings: source organism: Orthohantavirus khabarovskense
HLA-A*02:03 = assay: as above; settings: source organism: Choclo virus
[11] = source organism: Marburg virus - Musoke, Kenya, 1980
[12] = source organism: Francisella tularensis subsp. holarctica LVS
[13] = source organism: Francisella tularensis subsp. tularensis FSC033
[14] = source organism: Orthohantavirus andesense

For KLDFIRNTK, the Kd (HLA-A*01:01 [1]; [11]) was ≥ 20 µM, the Kd (HLA-A*69:01 [2]; [11]) was ≥ 20 µM and the Kd (HLA-A*11:01; [11]) was 0.604 µM. The Kd (HLA-B*18:01 [3]; [11]) was ≥ 20 µM, the Kd (HLA-B*48:01) was ≥ 20 µM and the Kd (HLA-A*02:01; [11]) was ≥ 20 µM. The Kd (HLA-B*27:05) was ≥ 20 µM, the Kd (HLA-B*58:01; [11]) was ≥ 20 µM and the Kd (HLA-B*40:01) was ≥ 20 µM. For the same sequence, the Kd (HLA-B*15:01; [11]) was ≥ 20 µM, the Kd (HLA-B*57:01; [11]) was ≥ 20 µM and the Kd (HLA-A*26:03; source organism: Orthomarburgvirus marburgense) was ≥ 20 µM. For the same sequence, the Kd (HLA-B*15:17) was ≥ 20 µM, the Kd (HLA-B*07:02; [11]) was ≥ 20 µM and the Kd (HLA-A*68:02; [11]) was ≥ 20 µM. For the same sequence, the Kd (HLA-A*03:01; [11]) was 0.0444 µM, the Kd (HLA-A*31:01; [11]) was 2.16 µM and the Kd (HLA-B*08:02) was ≥ 20 µM. The Kd (HLA-B*46:01 [4]) was ≥ 20 µM.

With EFKQILTDF the Kd (HLA-A*01:01 [5]) was ≥ 20 µM, the Kd (HLA-A*26:02) was 0.457 µM and the Kd (HLA-A*26:01; source organism: Francisella tularensis subsp. tularensis FSC198) was ≥ 20 µM. The Kd (HLA-A*69:01 [2]; [12]) was ≥ 20 µM, the Kd (HLA-B*39:01 [6]) was ≥ 20 µM and the Kd (HLA-A*11:01; [12]) was ≥ 20 µM. For the same sequence, the Kd (HLA-B*18:01 [3]; [13]) was 1.03 µM, the Kd (HLA-A*02:01; [12]) was ≥ 20 µM and the Kd (HLA-B*15:09) was ≥ 20 µM. The Kd (HLA-B*08:01) was 6 µM, the Kd (HLA-B*58:01; [12]) was ≥ 20 µM and the Kd (HLA-B*15:01; [12]) was ≥ 20 µM. For the same sequence, the Kd (HLA-B*57:01; [12]) was ≥ 20 µM, the Kd (HLA-A*26:03; [13]) was ≥ 20 µM and the Kd (HLA-B*07:02; [12]) was ≥ 20 µM. The Kd (HLA-A*68:02; [12]) was ≥ 20 µM and the Kd (HLA-A*31:01; [12]) was ≥ 20 µM.

For YTGAMTSKF, the Kd (HLA-B*45:06) was ≥ 5 µM, the Kd (HLA-B*83:01) was ≥ 5 µM and the Kd (HLA-B*15:42) was ≥ 5 µM. The Kd (HLA-C*14:02) was 0.394 µM and the Kd (HLA-A*68:23) was 0.0715 µM.

In the case of FSLPSSSSY, the Kd (HLA-A*69:01 [7]) is reported as ≥ 20 µM, the Kd (HLA-B*39:01 [8]) is reported as ≥ 20 µM and the Kd (HLA-B*18:01 [9]) is reported as ≥ 20 µM. The Kd (HLA-B*27:03) was ≥ 20 µM, the Kd (HLA-B*35:01) was ≤ 0.0001 µM and the Kd (HLA-A*26:01; source organism: Orthohantavirus khabarovskense) was ≥ 20 µM. The Kd (HLA-B*46:01 [10]) was 0.0707 µM, the Kd (HLA-C*08:02) was ≥ 20 µM and the Kd (HLA-A*01:01 [1]; [14]) was 0.377 µM. For the same sequence, the Kd (HLA-A*23:01) was ≥ 20 µM, the Kd (HLA-A*02:12) was ≥ 20 µM and the Kd (HLA-A*24:03) was ≥ 20 µM. For the same sequence, the Kd (HLA-C*03:03) was 0.028 µM, the Kd (HLA-B*58:01; [14]) was 0.0218 µM and the Kd (HLA-A*02:19) was ≥ 20 µM. For the same sequence, the Kd (HLA-C*12:03) was 0.043 µM, the Kd (HLA-A*02:03) was ≥ 20 µM and the Kd (HLA-A*68:02; source organism: Choclo virus) was ≥ 20 µM. For the same sequence, the Kd (HLA-A*03:01; source organism: Choclo virus) was ≥ 20 µM.
